Measurements taken from patent publication US20240327542A1 (published 2024).

Biological target: RAS-AMG510 (human;)
Assay: cell binding (Raji), flow cytometry; apparent KD

Kd [nM]	Binder
57	AMRA3-18 hIgG1 (antibody, V domains shown) VH: EVQLVESGGGLVQPGGSLRLSCAASGFTVSYSSIHWVRQAPGKGLEWVASISSSSGYTSYADSVKGRFTISADTSKNTAYLQMNSLRAEDTAVYYCARYAWWAHGLDYWGQGTLVTVSS VL: DIQMTQSPSSLSASVGDRVTITCRASQSVSSAVAWYQQKPGKAPKLLIYSASSLYSGVPSRFSGSRSGTDFTLTISSLQPEDFATYYCQQGSYTYRLITFGQGTKVEIKR
20	AMRA3-7 hIgG1 (antibody, V domains shown) VH: EVQLVESGGGLVQPGGSLRLSCAASGFTFSSYSIHWVRQAPGKGLEWVASIYSSYGYTSYADSVKGRFTISADTSKNTAYLQMNSLRAEDTAVYYCARGGWYPAMDYWGQGTLVTVSS VL: DIQMTQSPSSLSASVGDRVTITCRASQSVSSAVAWYQQKPGKAPKLLIYSASSLYSGVPSRFSGSRSGTDFTLTISSLQPEDFATYYCQQISYVYSLITFGQGTKVEIKR
45	AMRA11-2 hIgG1 (antibody, V domains shown) VH: EVQLVESGGGLVQPGGSLRLSCAASGFTISSSSIHWVRQAPGKGLEWVASISSYSSSTYYADSVKGRFTISADTSKNTAYLQMNSLRAEDTAVYYCARYPYGWGWGGSGLDYWGQGTLVTVSS VL: DIQMTQSPSSLSASVGDRVTITCRASQSVSSAVAWYQQKPGKAPKLLIYSASSLYSGVPSRFSGSRSGTDFTLTISSLQPEDFATYYCQQSSSSLITFGQGTKVEIKR
